This data set concerns the molecule itself. Nature of the data set: non-reducing SDS-PAGE and immunoblot; 3T3-L1 adipocytes incubated with GluOC for 24 h; cell lysates prepared in the absence of 2-mercaptoethanol; immunoblot with antibodies to MLKL.

B1: mixed-lineage kinase domain-like protein (MLKL) (natural protein, mouse (endogenous in 3T3-L1), UniProt Q9D2Y4 1-472, looked up)
chain: MDKLGQIIKLGQLIYEQCEKMKYCRKQCQRLGNRVHGLLQPLQRLQAQGKKNLPDDITAALGRFDEVLKEANQQIEKFSKKSHIWKFVSVGNDKILFHEVNEKLRDVWEELLLLLQVYHWNTVSDVSQPASWQQEDRQDAEEDGNENMKVILMQLQISVEEINKTLKQCSLKPTQEIPQDLQIKEIPKEHLGPPWTKLKTSKMSTIYRGEYHRSPVTIKVFNNPQAESVGIVRFTFNDEIKTMKKFDSPNILRIFGICIDQTVKPPEFSIVMEYCELGTLRELLDREKDLTMSVRSLLVLRAARGLYRLHHSETLHRNISSSSFLVAGGYQVKLAGFELSKTQNSISRTAKSTKAERSSSTIYVSPERLKNPFCLYDIKAEIYSFGIVLWEIATGKIPFEGCDSKKIRELVAEDKKQEPVGQDCPELLREIINECRAHEPSQRPSVDGRSLSGRERILERLSAVEESTDKKV
notes: mixed-lineage kinase domain-like protein (MLKL), endogenous in 3T3-L1 adipocytes treated with GluOC; High-dose GluOC induces phosphorylation of MLKL, printed as Thr357/Ser358; these numbers may be those of human MLKL although the cells are mouse; source: endogenous, 3T3-L1 adipocyte lysate
As a reminder, the stoichiometry N is the number of molecules, sites or subunits per partner or assembly. For the protein B1, the “stoichiometry N” value amounted to 3.

(Values after publication PMC6294257, “Osteocalcin triggers Fas/FasL-mediated necroptosis in adipocytes via activation of p300” (Cell Death & Disease, 2018).)
